Data set [1] concerns the target T1, ZntR (Salmonella enterica sv. Typhimurium …, UniProt A0A0H3NSQ7 1-141). In words: fluorescence anisotropy; apo, 5 mM EDTA; 10 nM probe, 60 mM NaCl, 240 mM KCl, 10 mM HEPES pH 7.0, anaerobic; temperature not stated. To be noted: protein: recombinant; chain copies: 2; label: 5' HEX on strand 1; blunt.
Data set [2] addresses T1, ZntR. In words: fluorescence anisotropy; Zn(II)-ZntR, 1.2 eq ZnCl2; 10 nM probe, 60 mM NaCl, 240 mM KCl, 10 mM HEPES pH 7.0, anaerobic; temperature not stated. To be noted: protein: recombinant; chain copies: 2; label: 5' HEX on strand 1; blunt.
In data set [3] the target is T1, ZntR. As to the kind of experiment: fluorescence anisotropy; Co(II)-ZntR, 5 uM CoCl2; 10 nM probe, 60 mM NaCl, 240 mM KCl, 10 mM HEPES pH 7.0, anaerobic; temperature not stated. To be noted: protein: recombinant; chain copies: 2; label: 5' HEX on strand 1; blunt.
Data set [4] addresses T2, Zur (Salmonella enterica sv. Typhimurium …, UniProt A0A0H3NVF0 1-171). As to the kind of experiment: fluorescence anisotropy; Zn(II)2-Zur (tightest two exchangeable sites filled); 10 nM probe, 60 mM NaCl, 240 mM KCl, 10 mM HEPES pH 7.0, anaerobic; temperature not stated. To be noted: protein: recombinant; chain copies: 4; label: 5' HEX on strand 1; blunt.
In data set [5] the target is T2, Zur. In words: fluorescence anisotropy; Co(II)-Zur, 1 uM CoCl2; 10 nM probe, 60 mM NaCl, 240 mM KCl, 10 mM HEPES pH 7.0, anaerobic; temperature not stated. To be noted: protein: recombinant; chain copies: 4; label: 5' HEX on strand 1; blunt.
Data set [6] addresses T2, Zur. As to the kind of experiment: fluorescence anisotropy; Zn(II)4-Zur, 1 uM ZnCl2; 10 nM probe, 60 mM NaCl, 240 mM KCl, 10 mM HEPES pH 7.0, anaerobic; temperature not stated. Conditions: protein: recombinant; chain copies: 4; label: 5' HEX on strand 1; blunt.

B1: zntAPro (dsDNA)
DNA 1: CTTGACTCTGGAGTCGACTCCAGAGTGTATCCTC
DNA 2: GAGGATACACTCTGGAGTCGACTCCAGAGTCAAG
For B1, the Kd amounted to 1.1 µM in the data set with ZntR [1], 0.65 µM with ZntR [2] and 0.34 µM with ZntR [3].

B2: znuAPro (dsDNA)
DNA 1: TAGAATGTTATAATATCACATTTCACACATTCA
DNA 2: TGAATGTGTGAAATGTGATATTATAACATTCTA
As to B2, the Kd is 0.041 µM with Zur [4], 0.031 µM with Zur [5] and 0.054 µM with Zur [6].
